Data: the supplement of paper PMC10126150
± gives the standard deviation of the averaged measurements.

These sequences were tested on ATP (assay: switch fluorescence ratio, 500 uM ATP over buffer (Cy3 cluster intensity, sum of 5 cycles each) (fold (ratio)); higher = stronger signal-on switching upon ATP binding; sequences stand for … in TCGTCGGCAGCGTCAGATGTGTATAAGAGACAGTTTTTTTTTTTTTTTTTTTTTTTTT…TC). Conditions: aptamer strand: ATP DNA aptamer (quencher-CACCTGGGGGAGTATTGCGGAGGAAGG + anchor), 100 nM annealed; ATP concentration: 500 uM.
Procedure, shortened: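 Cy3-labelled switching-strand clusters on a modified Illumina MiSeq flow-cell were annealed to 100 nM quencher-labelled ATP aptamer, imaged in selection buffer, then imaged after 15 min with 500 uM ATP at 22 °C. Five buffer/ATP cycles ran, with NaOH stripping and re-annealing between them. The fluorescence ratio is summed target-cycle over summed buffer-cycle Cy3 intensity per cluster, averaged per switch-domain sequence. Clusters outside 100-1000 RFU were excluded.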
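Note: ATP exposure 15 min at 22 °C before imaging.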

| Sequence | switch fluorescence ratio |
| --- | --- |
| TTATCCTTTA | 1.02 ± 0.012 |
| TTGTGCGGAC | 1.01 ± 0.04 |
| AGCAGAAGGA | 1.02 ± 0.015 |
| ATGGCATCGG | 1.005 ± 0.0035 |
| CGGCTACTTT | 1.03 ± 0.038 |
| GATGAGGGTA | 0.976 ± 0.034 |
| TGTGTCACCT | 1.09 ± 0.025 |
| AGGGTGTAGA | 1.016 ± 0.0045 |
| AGCGACCGTT | 1.032 ± 0.0078 |
| CGATGCATGG | 1.71 ± 0.19 |
| ACCTGCTTTT | 1.05 ± 0.051 |
| GTAGGGGGGA | 0.987 ± 0.04 |
| AGTAAGGGGA | 1.08 ± 0.045 |
| ATTCCTAGAT | 1.002 ± 0.0091 |
| TAGCATGGTA | 0.976 ± 0.049 |
| TGGGGTTAGT | 0.979 ± 0.014 |
| GGGTTCTCTC | 0.98 ± 0.011 |
| CCTCACAGTT | 1.24 ± 0.096 |
| TAAAGGCTTG | 0.976 ± 0.034 |
| GAGATCTTGG | 0.9824 ± 0.0045 |
| TGCTAGTGGT | 1.01 ± 0.016 |
| AAACTGGGGT | 0.999 ± 0.0016 |
| TCAGAAATGT | 1.01 ± 0.021 |

| Sequence | switch fluorescence ratio |
| --- | --- |
| AAATTAATTG | 1.02 ± 0.036 |
| ACTCGCGGGA | 0.995 ± 0.028 |
| AGAGGGTAGT | 1.01 ± 0.022 |
| AGGATACGGT | 1.0054 ± 0.00059 |
| TTAGGAGGTT | 0.965 ± 0.028 |
| TTATTTAGGC | 1.12 ± 0.055 |
| TGTCTTTTTT | 1.01 ± 0.029 |
| GCTTAGTTGT | 1.015 ± 0.0065 |
| AATATGGAGC | 1.08 ± 0.14 |
| GACCCTTACC | 1.38 ± 0.014 |
| GCGGGCAAGT | 0.9903 ± 0.00062 |
| GGAACTTGTT | 0.99 ± 0.012 |
| TTTTGATATA | 0.9989 ± 0.0085 |
| AGTCCAATGT | 0.993 ± 0.021 |
| TAATTTTTG | 0.9976 ± 0.0011 |
| GGGTAGCGCT | 0.969 ± 0.039 |
| TGGGACTTAG | 1.017 ± 0.0022 |
| GCGCTGGGGG | 1.07 ± 0.081 |
| AAAATGTCGG | 0.998 ± 0.012 |
| TTGTATGGAC | 1.019 ± 0.0076 |
| GTGTTTGTTC | 0.968 ± 0.013 |
| TTTCACACGT | 1.02 ± 0.024 |
| ATCGAGCCGG | 0.98 ± 0.049 |

| Sequence | switch fluorescence ratio |
| --- | --- |
| CTGGGAGGGA | 0.991 ± 0.035 |
| GTTTTTGCTG | 0.976 ± 0.024 |
| GGTCTCCTTT | 0.971 ± 0.018 |
| TTAGGAAGGG | 0.956 ± 0.035 |
| GTGTCCTGTA | 0.998 ± 0.072 |
| GTTTACCTTC | 1.04 ± 0.062 |
| GTGGACTAGT | 1.02 ± 0.026 |
| TTTGAGGTCT | 1.05 ± 0.072 |
| TTTCGAGAAG | 1.05 ± 0.054 |
| GGCTCTTAGG | 0.975 ± 0.03 |
| TGGGACGATC | 1.05 ± 0.028 |
| GGGTTTGTTA | 1 ± 0.018 |
| TGGGTGTCTG | 0.9826 ± 0.0043 |
| ACTGTATGTG | 1.05 ± 0.024 |
| TGCCGCAGGT | 1.01 ± 0.043 |
| GTGACTATGG | 0.96325 ± 0.00082 |
| CGCAGTTCTT | 1.198 ± 0.0086 |
| ACCTAAAGGA | 1.02 ± 0.016 |
| CAGGGATTAG | 1.01 ± 0.044 |
| GACCTTGGGA | 0.992 ± 0.039 |
| GGGACGGGGC | 1.06 ± 0.041 |
| TCTTTTCTTT | 1.04 ± 0.043 |
| TTATTAAGTT | 1.01 ± 0.027 |

| Sequence | switch fluorescence ratio |
| --- | --- |
| GGGGCGTGTG | 1.01 ± 0.014 |
| GAGATAAGCT | 1.04 ± 0.022 |
| CGTTGAGATC | 1.06 ± 0.059 |
| TCGTTAGGTG | 1.03 ± 0.025 |
| TGTGTGTGGA | 1.04 ± 0.03 |
| GATAGAAATT | 1.01 ± 0.031 |
| GCGTGCAGGA | 1.027 ± 0.01 |
| TTGGAAGAGT | 0.9941 ± 0.0083 |
| GTTAGGGGCG | 0.982 ± 0.013 |
| AAGATCAGGC | 0.9735 ± 0.0023 |
| GATTCAGCGC | 0.99 ± 0.03 |
| TTAATTTATT | 0.987 ± 0.035 |
| GCGTTGTGTG | 1.02 ± 0.027 |
| ACGTTCCGAG | 2.54 ± 0.32 |
| GTTGGCTTTG | 0.997 ± 0.048 |
| GGATGGAGGC | 0.987 ± 0.059 |
| AAAAGTAGGA | 0.984 ± 0.065 |
| AGTCAGGGGG | 1 ± 0.028 |
| TTAAAGCTGT | 1.02 ± 0.063 |
| CCAGGGAGGT | 1 ± 0.034 |
| GGAAGTTAGA | 0.9819 ± 0.0036 |
| AATGGGTGAT | 0.9826 ± 0.0024 |
| CGCAGGAAAG | 0.973 ± 0.0023 |

| Sequence | switch fluorescence ratio |
| --- | --- |
| ATGGGGATCG | 0.99341 ± 0.00035 |
| GGGGGGCTGA | 0.982 ± 0.018 |
| GCGTTTGCCC | 1.06 ± 0.072 |
| ATTGTGGGAG | 0.972 ± 0.017 |
| GTCGTCCGGG | 0.986 ± 0.028 |
| TGCATTACCC | 1.25 ± 0.41 |
| TTAAGTTGGG | 0.989 ± 0.038 |
| TAATTTGGAA | 1.009 ± 0.0095 |
| ATTTAAAATC | 0.9614 ± 0.0045 |
| GGTCCCCAAT | 1 ± 0.013 |
| TAGGTTGGTC | 1.02 ± 0.064 |
| GTGAGGGTGA | 1 ± 0.011 |
| GCTGGAATTG | 1 ± 0.0077 |
| GGAATGTACG | 1 ± 0.041 |
| CAAAATATGG | 0.984 ± 0.051 |
| TTTGATAAAA | 0.972 ± 0.039 |
| CTTTTACCGG | 1.04 ± 0.013 |
| ACTTGGGACT | 1.04 ± 0.047 |
| CTTTGAGACG | 0.978 ± 0.068 |
| AGGCGAAGGG | 0.993 ± 0.032 |
| TACTTTCGGT | 1 ± 0.013 |
| GCGCTTTTGC | 1.04 ± 0.061 |
| TTGTCACAGC | 1.03 ± 0.022 |

| Sequence | switch fluorescence ratio |
| --- | --- |
| AGCGCTGCCT | 0.996 ± 0.031 |
| GGAGTGCCGT | 1 ± 0.093 |
| GATTGGAGTC | 1.008 ± 0.0045 |
| TTGAATATGG | 1.01 ± 0.021 |
| TGAGAGGAGT | 0.9911 ± 0.0013 |
| GGGGTGAAAT | 1 ± 0.018 |
| TGTGGGGCAT | 1.15 ± 0.27 |
| TATTCGCATC | 2.12 ± 0.41 |
| TCGCTTTACT | 3.87 ± 0.81 |
| CTCGCATGCA | 1.2 ± 0.035 |
| GTCCTTGGTC | 0.982 ± 0.019 |
| CTGGGGGTGC | 1.06 ± 0.017 |
| CTCTAGTGGC | 1.1 ± 0.074 |
| GGTTGGCAGG | 1 ± 0.038 |
| TAAGCAGACG | 0.9687 ± 0.0061 |
| CGATACGGTG | 1.07 ± 0.035 |
| GTTCAATTGG | 0.98 ± 0.021 |
| ATATTAAAAG | 0.9959 ± 0.0043 |
| CGCGGGGGTG | 1.03 ± 0.024 |
| AGTGTTTGG | 0.997 ± 0.02 |
| ACGGTACGGA | 1.21 ± 0.05 |
| CTTTCTGGGG | 0.991 ± 0.017 |
| AAAGTATTAA | 1.014 ± 0.0026 |

| Sequence | switch fluorescence ratio |
| --- | --- |
| GCTCCAGGTA | 1.577 ± 0.0021 |
| TTGTAATTTA | 1.01 ± 0.019 |
| TAGAAGGTTC | 1.17 ± 0.29 |
| CCATCGTAAC | 2.28 ± 0.37 |
| TTAAAATATC | 0.99948 ± 0.00018 |
| GCTGTTCTTC | 0.985 ± 0.013 |
| GGGTTCTTTG | 1.03 ± 0.064 |
| AACGTGATTA | 1.07 ± 0.023 |
| CTGTATTTCT | 1.03 ± 0.021 |
| ATTTGGTTTC | 0.991 ± 0.025 |
| CTAAGTAGAT | 1.02 ± 0.028 |
| TTAGTTTCTA | 0.99394 ± 0.00081 |
| TTATCTCACT | 1.06 ± 0.014 |
| ACGATCTCCA | 1.035 ± 0.005 |
| AGGATGGACC | 1.01 ± 0.024 |
| AATTAGGGCT | 0.971 ± 0.026 |
| TGCGGGCGGC | 0.98 ± 0.024 |
| CGATGGTGAG | 1 ± 0.047 |
| CGGTTTTACT | 1.04 ± 0.021 |
